Reference: patent publication EP2329839B1
Values joined by “and” are separate entries in the source; they are usually repeats but may differ in a detail not shown here. Identical values can stand only once. Blank lines part the entries; values can stand above or below the molecule they belong to. Where no end group is shown, it is not given here.

Legend:
[1] = target: MC3-R (mouse arcuate nucleus) (mouse) (UniProt P33033); assay: cell-based or functional assay
[2] = target: µ opioid receptor (MOP-R) on mouse POMC neurons (mouse) (UniProt P42866); assay: cell-based or functional assay
UniProt P42866, sequence (P42866 whole entry): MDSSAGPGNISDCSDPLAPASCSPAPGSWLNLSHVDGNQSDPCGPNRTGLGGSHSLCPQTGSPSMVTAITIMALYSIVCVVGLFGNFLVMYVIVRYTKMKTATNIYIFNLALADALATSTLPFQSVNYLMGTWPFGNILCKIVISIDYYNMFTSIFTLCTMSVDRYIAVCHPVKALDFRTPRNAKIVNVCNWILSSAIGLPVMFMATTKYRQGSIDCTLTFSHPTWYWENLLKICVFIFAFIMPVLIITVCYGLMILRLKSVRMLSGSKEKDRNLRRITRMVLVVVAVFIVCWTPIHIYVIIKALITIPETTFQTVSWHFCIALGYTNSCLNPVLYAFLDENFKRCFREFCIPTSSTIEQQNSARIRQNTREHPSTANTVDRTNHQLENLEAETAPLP

[3] = target: T1, NPY Y2 receptor (on cell lines expressing it); assay: receptor-binding studies on cell lines expressing the NPY Y2 receptor; labelled ligand not named
T1 sequence (P49146 whole entry, species assumed, looked up): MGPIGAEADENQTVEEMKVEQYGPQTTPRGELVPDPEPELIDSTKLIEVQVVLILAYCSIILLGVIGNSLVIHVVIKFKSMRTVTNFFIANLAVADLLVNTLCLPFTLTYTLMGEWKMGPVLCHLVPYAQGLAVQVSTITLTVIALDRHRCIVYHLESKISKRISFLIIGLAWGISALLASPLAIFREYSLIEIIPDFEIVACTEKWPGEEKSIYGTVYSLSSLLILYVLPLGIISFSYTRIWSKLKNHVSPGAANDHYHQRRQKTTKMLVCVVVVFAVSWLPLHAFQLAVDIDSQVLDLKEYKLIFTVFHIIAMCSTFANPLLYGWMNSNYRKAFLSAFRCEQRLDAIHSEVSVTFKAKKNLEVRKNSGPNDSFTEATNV

UniProt P33033, sequence (P33033 whole entry): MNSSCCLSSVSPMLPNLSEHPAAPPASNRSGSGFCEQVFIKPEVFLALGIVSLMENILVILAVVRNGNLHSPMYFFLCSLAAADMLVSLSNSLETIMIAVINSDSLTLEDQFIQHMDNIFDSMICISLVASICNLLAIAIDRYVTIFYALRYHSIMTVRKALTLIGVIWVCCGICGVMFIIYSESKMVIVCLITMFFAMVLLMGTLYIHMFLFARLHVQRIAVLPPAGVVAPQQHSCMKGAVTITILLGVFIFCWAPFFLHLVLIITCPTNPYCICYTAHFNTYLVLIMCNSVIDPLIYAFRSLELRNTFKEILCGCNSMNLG

frequency of GABAergic IPSCs recorded from POMC neurons [1]: 280%
Molecule: D-Trp^8-γMSH (peptide)

hyperpolarization of the membrane potential of POMC cells (whole cell recording, mouse slices) [2]: 10 mV and 20 mV
Molecule: met-enkephalin (peptide)

IC50 [3]: 1.3 nM
B1: N-acetyl (Leu^28, Leu^31) NPY (24-36) (peptide)
peptide: Ac-LRHYLNLLTRQRY
modifications: ends and bridges not checked
